From US20150086622A1, “GROWTH ENHANCEMENT OF INFANTS” (NUTRINIA LTD., priority 2012, published 2015)
Entries after “also recorded” stand apart in the source; their conditions may differ.

Tests used:
low birth weight infants [1] = experiment: Clinical studies: safety / side effects of insulin enriched formula; type: in vivo, human
Description: Phase I, multi center, non-randomized, open label, single group study to assess the safety of insulin enriched formula on low birth weight infants was conducted in Rabin Medical Center and Laniado Hospital, Israel. The possible effect of the insulin enriched formula on growth of low birth weight infants, born on term (at least 34 weeks of gestation) was also examined in this study. Parents of eligible infants, who met the study criteria, were invited to participate in the study following signing on Informed Consent Form (ICF). From study day 1, the infants received the insulin enriched infant formula ([…], Israel). They were fed with the formula for the first 4 months without the addition of complementary feed. The infants' gender, family origin, gestational age at birth, maternal medications, maternal age, chronic diseases in the family and the infant's condition upon enrollment were recorded. […] At study day 1 and 2, and at 1, 4, 8, 12, 16 and 24 weeks the parents of the infant were asked to come to the neonatal ward for follow up examinations. During the study, the infant's weight, length, head circumference, glucose blood levels, blood count, blood fat, blood chemistry, blood amino acids, insulin antibodies, and serum levels were recorder, as well as food consumption, vomiting, regurgitation and stools frequency were measured and assessed. Infants were to be withdrawn from the study if any serious adverse event or any deterioration in the infant clinical condition had occurred. They were followed up on possible side effects and efficacy measures until 6 months of age. […] A multicenter, double blind, randomized study for studying the effect of the insulin enriched infant formula on the growth of low weight infants was planned to take place in Israel in 2005 (headed by Prof Sirota, Schneider Hospital). Due to low recruitment rate (only 8 premature infants), the study was terminated.

preterm infants [2] = experiment: Randomized placebo controlled study: number of hospitalization days to discharge; type: in vivo, human
Description: A Multi-center, two arms, randomized, double-blinded placebo controlled study was conducted to evaluate the effect of insulin-enriched infant formula on preterm infants. In this study, the population of infants included also babies having extremely low birth weight (inclusion criteria included babies weighing over 750 grams). The insulin was given at a concentration range which is mimicking colostrums concentration (at 400 μU/ml. The study primary goal was to determine whether insulin supplement to the basic preterm oral formula enhances gastrointestinal maturation. The gastrointestinal maturation was evaluated by the ability of the premature infants to achieve complete enteral feeds (150-160 ml/kg/day). The infants were hospitalized in the neonatal hospital ward in the same manner as preterm infants whose parents elected not to participate in the study. The infants were randomly assigned to one of two treatment groups: the study product-InsuMealTM as a test group and Placebo supplement as a control group. […] From study day 1, the infants in the test group received the InsuMealTM additive mixed with the ready to feed (RTF) preterm […] formula and the control group received a placebo supplement mixed with the same RTF preterm […] formula. Infant maturation and growth was further assessed by the number of hospitalization days required until the preterm infant could be discharged.

low birth weight infants [3] = experiment: Phase I open label single group clinical study of insulin enriched formula: growth in weight, length, head circumference; type: in vivo, human; conditions: at 6 months; CDC growth tables
Description: The effect of insulin enriched formula on low birth weight full term infant was examined. Inclusion criteria for participating in the study included: healthy infants 34-42 weeks gestation (“term born infants”); birth weight above 1,650 g, typically between 1750 gram and 2500 gram; no major congenital malformation or any other illness sign; chronological age under 240 hours; mother is not willing to breastfeed the baby during the study period and signed an informed consent. Infant with a high index of suspect for infection before enrolment, maternal diabetes, and medications given until day 1 of the study were excluded. Observed results regarding weight, length, and head circumference were compared to expected values which were obtained from the CDC growth reference tables (ibid) according to the infants' gender, gestational age and percentile of birth weight (BW). Interpolation or extrapolation was used to determine the percentile and the expected gain of each infant. The expected values are specific to the percentile measure at birth. The percentile of each BW was evaluated according to the gender, gestational age and multiplicity (singleton or twin) using published tables for Israel (Dolberg S. et al., IMAJ, 7, 2005, 311-314). No such data were available with respect to the percentiles of length and of head circumference. It was therefore assumed that the BW percentile of each infant is applicable to each of the other two growth measures. […] The infants' gender, family origin, gestational age at birth, maternal medications, maternal age, chronic diseases in the family and the infant's condition upon enrollment were recorded. […] During the study, the infant's weight, length, head circumference, glucose blood levels, blood count, blood fat, blood chemistry, blood amino acids, insulin antibodies, and serum levels were recorder, as well as food consumption, vomiting, regurgitation and stools frequency were measured and assessed. The possible effect of the insulin enriched formula on growth was evaluated with respect to gain in weight, length, and head circumference. […]

preterm infants [4] = experiment: Randomized placebo controlled study: gastrointestinal maturation (days to complete enteral feeding); type: in vivo, human; conditions: all infants; control 7.9; P-value=0.2085
Description: A Multi-center, two arms, randomized, double-blinded placebo controlled study was conducted to evaluate the effect of insulin-enriched infant formula on preterm infants. In this study, the population of infants included also babies having extremely low birth weight (inclusion criteria included babies weighing over 750 grams). The insulin was given at a concentration range which is mimicking colostrums concentration (at 400 μU/ml. The study primary goal was to determine whether insulin supplement to the basic preterm oral formula enhances gastrointestinal maturation. The gastrointestinal maturation was evaluated by the ability of the premature infants to achieve complete enteral feeds (150-160 ml/kg/day). The infants were hospitalized in the neonatal hospital ward in the same manner as preterm infants whose parents elected not to participate in the study. The infants were randomly assigned to one of two treatment groups: the study product-InsuMealTM as a test group and Placebo supplement as a control group. The parents, the medical team treating the infants and the study monitor were blinded to the treatment arm. From study day 1, the infants in the test group received the InsuMealTM additive mixed with the ready to feed (RTF) preterm […] formula and the control group received a placebo supplement mixed with the same RTF preterm […] formula. […]

newborn miniature pigs = conditions: oral administration of 85 mU/ml; cited from earlier work
preterm infants [5] = conditions: oral, 4 to 28 days of age, 4 U/kg/day; cited from earlier work

With “insulin: polypeptide hormone; human insulin administered orally to infants, within infant formula” the Adverse events (low birth weight infants [1]; follow up to 6 months) was “No deleterious effects; also recorded: no adverse events were observed”, the Anti-insulin antibodies (low birth weight infants [1]; human, in vivo) was “did not stimulate the production of anti-insulin antibodies” and the Hypoglycemia (low birth weight infants [1]; human, in vivo) was “did not cause hypoglycemia”. For the same substance, the “Number of days to discharge, Mean” value (preterm infants [2]; all infants, control 33.6, P-value=0.2192) was 28.8 days, the “Number of days to discharge, Mean” value (preterm infants [2]; infant birth weight < 1300 gr, control 47.0, P value=0.0447) was 35.8 days and the “Effect on head circumference relative to the expected growth” value (low birth weight infants [3]) was 17.6%. The “Effect on length relative to the expected growth” value (low birth weight infants [3]) was 8.1%, the “Effect on weight relative to the expected growth” value (low birth weight infants [3]) was 18.1% and the “Number of days to achieve complete enteral feeding (>=150 ml/Kg/day), Mean” value (preterm infants [4]) was 6.4 days. The “Intestine ileal mass and lactase activity” value (newborn miniature pigs) was “increased”, the “Hypoglycaemia or other adverse effects” value (preterm infants [5]) was “without inducing hypoglycaemia or other adverse effects” and the Lactase activity (preterm infants [5]) was “increased lactase activity”.
